The values that follow come from article doi:10.1101/2021.04.21.440744 (bioRxiv, 2021).

This series concerns the molecule itself. The series is described as follows: […].

B1: Ebola virus transmembrane glycoprotein GP (natural protein)
chain: IPLGVIHNSTLQVSDVDKLVCRDKLSSTNQLRSVGLNLEGNGVATDVPSATKRWGFRSGVPPKVVNYEAGEWAENCYNLEIKKPDGSECLPAAPDGIRGFPRCRYVHKVSGTGPCAGDFAFHKEGAFFLYDRLASTVIYRGTTFAEGVVAFLILPQAKKDFFSSHPLREPVNATEDPSSGYYSTTIRYQATGFGTNETEYLFEVDNLTYVQLESRFTPQFLLQLNETIYTSGKRSNTTGKLIWKVNPEIDTTIGEWAFWETKKNLTRKIRSEELSFTVVSNGAKNISGQSPARTSSDPGTNTTTEDHKIMASENSSAMVQVHSQGREAAVSHLTTLATISTSPQSLTTKPGPDNSTHNTPVYKLDISEATQVEQHHRRTDNDSTASDTPSATTAAGPPKAENTNTSKSTDFLDPATTTSPQNHSETAGNNNTHHQDTGEESASSGKLGLITNTIAGVAGLITGGRRTRREAIVNAQPKCNPNLHYWTTQDEGAAIGLAWIPYFGPAAEGIYIEGLMHNQDGLICGLRQLANETTQALQLFLRATTELRTFSILNRKAIDFLLQRWGGTCHILGPDCCIEPHDWTKNITDKIDQIIHDFVDKTLPDQGDNDNWWTGWRQWIPAGIGVTGVIIAVIALFCICKFVF
What is called stoichiometry N is a count of units in the complex or per binding partner. As for B1, the “stoichiometry N” value is 3.
